Results taken from US7063950.

Experiments:
[1] = molecular target: human neuronal calcium channel subunits α1B-1α2b (human)
[2] = molecular target: human neuronal calcium channel subunits α1B-1α2b (human); remark: listed apart in the source
[3] = molecular target: human neuronal calcium channel subunits α1B-1β1-2 (human)
[4] = molecular target: human neuronal calcium channel subunits α1B-1β1-3 (human)
[5] = molecular target: human neuronal calcium channel α1B-1α2bβ1-2 (human)
[6] = molecular target: human neuronal calcium channel α1B-1α2bβ1-3 (human)
[7] = molecular target: human neuronal calcium channel α1B-2α2bβ1-2 (human)
[8] = molecular target: human neuronal calcium channel subunits α1B-1β1-2 (human); test: saturation binding of 125I-ω-CgTx GVIA to transiently transfected HEK293 cells
[9] = molecular target: human neuronal calcium channel subunits α1B-1β1-3 (human); test: as above
[10] = molecular target: human neuronal calcium channel subunits α1B-2β1-2 (human); test: as above
[11] = molecular target: human neuronal calcium channel subunits α1B-2β1-3 (human); test: as above
[12] = molecular target: human neuronal calcium channel α1B-1α2bβ1-2 (human); test: as above
[13] = molecular target: human neuronal calcium channel α1B-1α2bβ1-3 (human); test: as above
[14] = molecular target: human neuronal calcium channel α1B-2α2bβ1-2 (human); test: as above
[15] = molecular target: human neuronal calcium channel α1E-3α2bβ1-3 (human); test: cell-based or functional assay

## 125I-ω-CgTx GVIA (from UniProt P01522 46-72) (peptide)
[1]
  Bmax (sites/cell): 2260 sites/cell
  Kd: 84.6 pM
[2]
  fold increase of binding capacity against α1B-1 alone: 3 fold
[3]
  fold increase of surface binding against α1B-1 alone: 8 fold
[4]
  fold increase of surface binding against α1B-1 alone: 10 fold
[5]
  fold binding sites per cell against α1B-2α2bβ1-2: 2.5 fold
  fold surface receptor density against α1B-1β1-2: 8 fold
[6]
  fold binding capacity against α1B-1α2bβ1-2: 2 fold
  fold binding sites per cell against α1B-2α2bβ1-3: 2.5 fold
  fold surface receptor density against α1B-1β1-3: 10 fold
[7]
  fold surface receptor density against α1B-2β1-2: 9 fold
[8]
  Bmax (sites/cell): 5760 sites/cell
  Kd: 17.9 pM
[9]
  Bmax (sites/cell): 8730 sites/cell
  Kd: 17.9 pM
[10]
  Bmax (sites/cell): 2130 sites/cell
  Kd: 16.4 pM
[11]
  Bmax (sites/cell): 2940 sites/cell
  Kd: 22.2 pM
[12]
  Bmax (sites/cell): 45300 sites/cell
  Kd: 54.9 pM
[13]
  Bmax (sites/cell): 91000 sites/cell
  Kd: 53.2 pM
[14]
  Bmax (sites/cell): 19400 sites/cell
  Kd: 53 pM

## ω-Aga-IVa (from UniProt P30288 1-48) (peptide)
[15]
  block of barium current (whole-cell patch clamp, HEK 293 cells) (% block at 10 nM): 73
